Results: article PMC2172684 (The Journal of Cell Biology, 2003)
Positions count from the first letter of the chain named. Names and notes keep the numbering of the source. Blank lines part the entries; values can stand above or below the binder they belong to.

Tests used:
Assay in all cases: ELISA
[1] = target: wild-type importin β (human, UniProt Q14974 1-876)
[2] = target: importin β I178A (human, UniProt Q14974 1-876, I178A)
[3] = target: importin β E214A (human, UniProt Q14974 1-876, E214A)
[4] = target: importin β F217A (human, UniProt Q14974 1-876, F217A)
[5] = target: GST–RanGTP (UniProt P62826 1-216)
[6] = target: T1, GST-tagged Nup153 (895–1475) ( (mammalian), UniProt P49790 895-1475)
T1 sequence (looked up): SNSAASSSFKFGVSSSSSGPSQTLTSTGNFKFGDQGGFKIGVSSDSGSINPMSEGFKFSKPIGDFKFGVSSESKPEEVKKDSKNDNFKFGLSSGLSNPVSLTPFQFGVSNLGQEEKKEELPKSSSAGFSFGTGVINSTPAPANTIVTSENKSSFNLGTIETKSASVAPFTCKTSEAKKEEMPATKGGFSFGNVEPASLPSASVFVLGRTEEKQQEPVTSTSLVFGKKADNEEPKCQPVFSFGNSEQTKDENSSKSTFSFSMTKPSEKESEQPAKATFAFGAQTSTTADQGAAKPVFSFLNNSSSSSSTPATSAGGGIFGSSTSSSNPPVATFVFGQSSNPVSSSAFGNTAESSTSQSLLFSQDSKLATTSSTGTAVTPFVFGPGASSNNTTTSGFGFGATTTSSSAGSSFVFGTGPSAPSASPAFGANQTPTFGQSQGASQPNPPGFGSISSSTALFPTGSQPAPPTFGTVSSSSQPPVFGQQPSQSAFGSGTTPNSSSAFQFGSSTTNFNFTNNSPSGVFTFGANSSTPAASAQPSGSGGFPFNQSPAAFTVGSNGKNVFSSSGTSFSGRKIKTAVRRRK

Kd [1]: 77.3 ± 11.6 nM
Kd [2]: 89 ± 9 nM
Kd [3]: 770 ± 123 nM
Kd [4]: 227 ± 33.3 nM
B1: GST-tagged full-length Nup62 (natural protein, UniProt P17955 1-525, looked up)
chain: MSGFNFGGTGAPAGGFTFGTAKTATTTPATGFSFSASGTGTGGFNFGTPSQPAATTPSTSLFSLATQTSTTQTPGFNFGTTPASGGTGFSLGISTPKLSLSSTAATPATANTGSFGLGSSTLTNAISGASTSSQGTAPTGFVFGSSTTSAPSTGTTGFSFTSGSASQPGASGFNIGSVGSLAQPTALSGSPFTPATLATTTAGATQPAAATPTAATTSAGSTLFASIAAAPASSSTTVLSLSAPATTAATPTAGTLGFSLKAPGAAPGASTTSTTTTTTTTTTTASTSSSTTTTGFALSLKPLVPAGPSSVAATALPASSTAVGTTTGPAMTYAQLESLINKWSLELEDQERHFLQQATQVNAWDRTLIENGEKITSLHREVEKVKLDQKRLDQELDFILSQQKELEDLLSPLEESVKEQSGTIYLQHADEEREKTYKLAENIDAQLKRMAQDLKDIIEHLNMAGGPADTSDPLQQICKILNAHMDSLQWVDQSSALLQRRVEEASRVCESRRKEQERSLRIAFD

Kd [5]: 3.9 ± 0.4 nM
B2: importin β I178A/F217A/Y255A/I263R (m-N) (natural protein)
chain: MELITILEKTVSPDRLELEAAQKFLERAAVENLPTFLVELSRVLANPGNSQVARVAAGLQIKNSLTSKDPDIKAQYQQRWLAIDANARREVKNYVLQTLGTETYRPSSASQCVAGIACAEIPVNQWPELIPQLVANVTNPNSTEHMKESTLEAIGYICQDIDPEQLQDKSNEILTAIAQGMRKEEPSNNVKLAATNALLNSLEFTKANFDKESERHAIMQVVCEATQCPDTRVRVAALQNLVKIMSLYYQYMETAMGPALFARTIEAMKSDIDEVALQGIEFWSNVCDEEMDLAIEASEAAEQGRPPEHTSKFYAKGALQYLVPILTQTLTKQDENDDDDDWNPCKAAGVCLMLLATCCEDDIVPHVLPFIKEHIKNPDWRYRDAAVMAFGCILEGPEPSQLKPLVIQAMPTLIELMKDPSVVVRDTAAWTVGRICELLPEAAINDVYLAPLLQCLIEGLSAEPRVASNVCWAFSSLAEAAYEAADVADDQEEPATYCLSSSFELIVQKLLETTDRPDGHQNNLRSSAYESLMEIVKNSAKDCYPAVQKTTLVIMERLQQVLQMESHIQSTSDRIQFNDLQSLLCATLQNVLRKVQHQDALQISDVVMASLLRMFQSTAGSGGVQEDALMAVSTLVEVLGGEFLKYMEAFKPFLGIGLKNYAEYQVCLAAVGLVGDLCRALQSNIIPFCDEVMQLLLENLGNENVHRSVKPQILSVFGDIALAIGGEFKKYLEVVLNTLQQASQAQVDKSDYDMVDYLNELRESCLEAYTGIVQGLKGDQENVHPDVMLVQPRVEFILSFIDHIAGDEDHTDGVVACAAGLIGDLCTAFGKDVLKLVEARPMIHELLTEGRRSKTNKAKTLATWATKELRKLKNQA

Kd [6]: 1.2 ± 0.1 nM
B3: importin β (1–396) (domain or fragment, human, UniProt Q14974 1-396, looked up)
chain: MELITILEKTVSPDRLELEAAQKFLERAAVENLPTFLVELSRVLANPGNSQVARVAAGLQIKNSLTSKDPDIKAQYQQRWLAIDANARREVKNYVLQTLGTETYRPSSASQCVAGIACAEIPVNQWPELIPQLVANVTNPNSTEHMKESTLEAIGYICQDIDPEQLQDKSNEILTAIIQGMRKEEPSNNVKLAATNALLNSLEFTKANFDKESERHFIMQVVCEATQCPDTRVRVAALQNLVKIMSLYYQYMETYMGPALFAITIEAMKSDIDEVALQGIEFWSNVCDEEMDLAIEASEAAEQGRPPEHTSKFYAKGALQYLVPILTQTLTKQDENDDDDDWNPCKAAGVCLMLLATCCEDDIVPHVLPFIKEHIKNPDWRYRDAAVMAFGCILEG

Kd [6]: 160 ± 25.3 nM
B4: importin β m-N (1–396) (domain or fragment, human, UniProt Q14974 1-396, looked up)
chain: B3 chain with I178A, F217A, Y255A, I263R

Kd [6]: 152 ± 17.5 nM
B5: importin β (304–876) (domain or fragment, human, UniProt Q14974 304-876, looked up)
chain: GRPPEHTSKFYAKGALQYLVPILTQTLTKQDENDDDDDWNPCKAAGVCLMLLATCCEDDIVPHVLPFIKEHIKNPDWRYRDAAVMAFGCILEGPEPSQLKPLVIQAMPTLIELMKDPSVVVRDTAAWTVGRICELLPEAAINDVYLAPLLQCLIEGLSAEPRVASNVCWAFSSLAEAAYEAADVADDQEEPATYCLSSSFELIVQKLLETTDRPDGHQNNLRSSAYESLMEIVKNSAKDCYPAVQKTTLVIMERLQQVLQMESHIQSTSDRIQFNDLQSLLCATLQNVLRKVQHQDALQISDVVMASLLRMFQSTAGSGGVQEDALMAVSTLVEVLGGEFLKYMEAFKPFLGIGLKNYAEYQVCLAAVGLVGDLCRALQSNIIPFCDEVMQLLLENLGNENVHRSVKPQILSVFGDIALAIGGEFKKYLEVVLNTLQQASQAQVDKSDYDMVDYLNELRESCLEAYTGIVQGLKGDQENVHPDVMLVQPRVEFILSFIDHIAGDEDHTDGVVACAAGLIGDLCTAFGKDVLKLVEARPMIHELLTEGRRSKTNKAKTLATWATKELRKLKNQA
